Tested on: MS2 coat protein
Assay: apparent KD of MS2 coat protein; designed switch direction (-1 OFF switch, 1 ON switch): -1; higher = weaker reporter binding
Outline: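 Designed RNA switches with common flanks were made on Illumina chips by stalled E. coli RNA polymerase. Titration with SNAP-549-labelled MS2 coat protein doubled from 0.7 or 1.5 nM up to 3 µM. Apparent KD is each design's median over clusters after curve-fitting normalised fluorescence.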

[1] = Eterna round: R95, input ligand: microRNA oligo, concentration not stated
[2] = input ligand: microRNA oligo, concentration not stated
[3] = Eterna round: R95, input ligand: FMN 200 uM
[4] = Eterna round: R95, input ligand: none

Sequence	apparent KD of MS2 coat protein [1]	apparent KD of MS2 coat protein (input ligand: FMN 200 uM)	apparent KD of MS2 coat protein [2]	apparent KD of MS2 coat protein (input ligand: none)	other results
GAGAUGUGAGGAUAUCUAGACCGCGGAAGAGCCGCAGUCCGAGAGAAGGCACAUGAGGAUCACCCAUGUGAUGA [Teorgeor] (puzzle: Exclusion 4)	36 nM	–	–	–	–
CUCCGGCGUGUAGGAUAUGGUUCCGUUUCGGUUCCAGAAGGACAUGAGGAUCACCCAUGUACAUGUCGUCGGUCGUCACCGGGC [salish99_ExNG1_r04_215] (Eterna round: R96, puzzle: Exclusion NG 1)	–	120 nM	21.7 nM	35.4 nM	–
UUAUAAAGUGUGAGGAUAUGCUGGUCGAUAGAUCAGCAGAAGGCACAUGAGGAUCACCCAUGUAAUAUAUUUUU [Mat - Exclusion 4 - JL Mod - D44] (puzzle: Brourd's mod of Exclusion 4)	45.1 nM	–	–	–	–
UAAAUGUCAGGAUAUUGUUAAUUUAGUUGUUUGUAUUAGUUCGAGAAGGGACAUGAGGAUCACCCAUGUUAUUU [Ex4 #55] (Eterna round: R97, puzzle: Exclusion 4)	–	33.6 nM	–	31.9 nM	–
UUACGGCGGAUCGUGGCUUUUUGCUCGUCUUGUGCUACAACAUGAGGAUCACCCAUGUAGAGGUGAUCCGUUGUAUU [Grok-var2-19 mod JAL] (Eterna round: R96, puzzle: Sensor v3, turn-off variant 2)	–	342 nM	13.4 nM	740 nM	–
CUUCGGGCAGGAUAUGCUGUUUGUGACAUGAGGAUCACCCAUGUGAUGCAGUUUGGGUGUGCAGAAGGGCCUGAGU [JR_E5_Sub031] (puzzle: Exclusion 5)	43.7 nM	–	–	–	–
GGCAUCGGAGGAUAUACUUAUGGUGAUGUUCGAAGCUUUCUACUUGAGGAUCACCCAAGUAGAAGGCCGAUGCC [jl-ex2.4.78 ViennaUCT mod] (Eterna round: R97, puzzle: Exclusion 2)	–	5.28 nM	–	17.4 nM	–
GUAGAGUAAGGAUAUGCUGAAUAGGAUAGAAUGGUUAGAAAGUAGAAGGUACAUGAGGAUCACCCAUGUAAUGU [Excluse me!!!! 24 - Jieux - Exclusion 4] (puzzle: Exclusion 4)	20.3 nM	–	–	–	–
CUAUCUUGCAAGGAUAUGCAAUUUAUUAUUUAUGCAGAAGGUGCUACAUGAGGAUCACCCAUGUUUCUGGGUUU [JR_E6_Sub046] (Eterna round: R96, puzzle: Exclusion 6)	–	314 nM	116 nM	120 nM	–
CUGUACUGAGGAUAUACAUGAGGAUCACCCAUGUGUUCCAGCUAGGAAACUAGCAAAAGUAGAAGGCAGUACAG [Mat - Exclusion 3 - Eli Mod - D65] (Eterna round: R97, puzzle: Exclusion 3)	–	332 nM	–	30.5 nM	–
UGUACGAUGCGUGCUGACAUGCGUCGUGCAGCAGGUGAUACAUGAGGAUCACCCAUGUCCUCAUUUGCUCGUCUUAU [Mat - Sensor v3 - Turn-off var 2 - D23] (puzzle: Sensor v3, turn-off variant 2)	218 nM	–	–	–	apparent KD of MS2 coat protein [3]: 53.5 nM; apparent KD of MS2 coat protein [4]: 55.6 nM
CUUGCACGACGAGGAUAUCGUAAACAUGAGGAUCACCCAUGUAGGUGGCGUCGUCCUCUAUCUUGCGAGAAGGCGUAAAAUUAA [Begeeda] (Eterna round: R96, puzzle: Exclusion NG 2)	–	82.6 nM	47.1 nM	39.4 nM	–
UAUCAUCAUGUAGGAUAUGCGUGGCGAAGCUAUGCAGAAGGACAUGAGGAUCACCCAUGUUCUUGCGUCUGCGUACAGAUGCAA [Mat - Exclusion NG 1 - Mod of JL - D71] (Eterna round: R96, puzzle: Exclusion NG 1)	–	218 nM	38 nM	66.7 nM	–
CAGUACUGAGGAUAUACAUGAGGAUCACCCAUGUGUGUGAGAAAAUUAAUAAAAGAAUGUAGAAGGCGGUGCUG [JR_Ex3_Sub041] (Eterna round: R97, puzzle: Exclusion 3)	–	645 nM	–	357 nM	–
GCAUUUUGGUCGUCUUAUAACAUGAGGAUCACCCAUGUGUUGAGCCCAACUUAUUGUACUCAUGCUAUGGCCUGAUG [Eternabot (L2) Solution 27] (Eterna round: R97, puzzle: Sensor, turn-off variant 1)	–	81.2 nM	–	84.2 nM	–
AGGUAGUCAGGAUAUUAGUAGUAGCGGGAUAACGCUACUAUUGAGAAGGGACAUGAGGAUCACCCAUGUUUUGU [JR_Ex4_Sub067] (Eterna round: R97, puzzle: Exclusion 4)	–	54.7 nM	–	22.5 nM	–
UGCUACGGAGGAUAUACAUGAGGAUCACCCAUGUGAGAGAUUUAGCCGAGAGGCUAGUGUAGAAGGCCGUAGCU [jl-ex3-4.17 jl mod] (Eterna round: R97, puzzle: Exclusion 3)	–	400 nM	–	62.8 nM	–
GGAGUGUAAGGAUAUAAGACAAGGGCUAUCGGAGCCCAAAUUUAGAAGGUACAUGAGGAUCACCCAUGUGAUGA [Eternabot (L1) Solution 5] (Eterna round: R97, puzzle: Exclusion 4)	–	124 nM	–	27.2 nM	–

Sequence	apparent KD of MS2 coat protein [1]	apparent KD of MS2 coat protein (input ligand: FMN 200 uM)	apparent KD of MS2 coat protein [2]	apparent KD of MS2 coat protein (input ligand: none)	other results
CCGGAAGUAGAGGAUAUAGGAGUCGAUAGACUCCUAGAAGGCUAUACAUGAGGAUCACCCAUGUGUCCUACCGG [Fiskers Ex 6 - 68] (puzzle: Exclusion 6)	19.1 nM	–	–	–	–
UCUGCAACGCAAGGAUAUCUUAGAGUUGAAGAAAGAGAAGGUGCAGGUGAUAACAUGCCCGUAACAUGAGGAUCACCCAUGUAA [Eternabot solution 48] (Eterna round: R96, puzzle: Exclusion NG 1)	–	96.1 nM	68.3 nM	79.3 nM	–
AUAAUAAAACAUGAGGAUCACCCAUGUGGGUCGUUCUACUGGCAGGAUAUCGCCAGACAAUAAAACGAGAAGGGCCAGUUAAUA [Leanerrean] (Eterna round: R96, puzzle: Exclusion NG 3)	–	168 nM	92.6 nM	86 nM	–
AAGUAGAGCUAAGGAUAUAUAGAGUAGUAGAAGAUAGAAGGUAGAAGUAGAAGAUGAUGAUGAAGAUGAAGUAGAUGAAGUAGA [TEST1] (Eterna round: R96, puzzle: Exclusion NG 1)	–	24.7 nM	209 nM	19.9 nM	–
GGGCUCGGUGUGAGGAUAUGCUCGGGUAAACUCGGGCAGAAGGCACAUGAGGAUCACCCAUGUAAGUCGGGCUC [-28.5, -27.4 kcal, A 23%, 4bis-4] (Eterna round: R97, puzzle: Brourd's mod of Exclusion 4)	–	18.6 nM	–	18 nM	–
UGGGUUACCCAUGGAAGUAACAUGAGGAUCACCCAUGUAGGGCAAGUUUUUUGUUCGUCAUAGGCCGUGGGUUUGGA [JR_SV3TOV1_Sub021] (puzzle: Sensor v3, turn-off variant 1)	56.8 nM	–	–	–	apparent KD of MS2 coat protein [3]: 30.4 nM; apparent KD of MS2 coat protein [4]: 32.4 nM
UUAAUUAAUUGACUGCAAGAUCAACAUGAGGAUCACCCAUGUGAGGAUAUCAGCUCGUUUAGAGCUGAGAAGGCACAAGCAGUC [ExNG3/16-A2] (Eterna round: R96, puzzle: Exclusion NG 3)	–	53.6 nM	16.7 nM	17.6 nM	–
UCUCGACAUGAGGAUCACCCAUGUCAGGAUAUUGUAUUGGAGGUUUUUUACCUUAUGGCAAGAAGGGAUGUGUG [LRO-Excl1-24] (puzzle: Exclusion 1)	18.3 nM	–	–	–	–
CAGGAUAGAGGAUAUACGUAGAUACAGAUUCAUGUAAUCCUACAUGAGGAUCACCCAUGUAGAAGGCUAUCCUG [Fiskers Ex 2 - 18] (puzzle: Exclusion 2)	17.6 nM	–	–	–	–
UGUUGUCGCGCAGGAUAUGAGGAUCACCCAUAUACAGGAUAUGAAAAGAAGGGUCUGAGGAUUACCCAGAAGGGCGGGACAACU [pwkr exNG2 2xF5 2xFMN.26] (Eterna round: R96, puzzle: Exclusion NG 2)	–	386 nM	59.1 nM	88 nM	–
GUAUCGUGAGGAUAUCAUGAUUGACUUAGUUUAUGUCAGCGUGAGAAGGCACAUGAGGAUCACCCAUGUGAUUA [Ex4 - 3 - 7] (puzzle: Exclusion 4)	23.1 nM	–	–	–	–
GCAUCGGCAGGAUAUACGCCGUAUGACAUGAGGAUCACCCAUGUUCCCGAGUCACAGAAAGUAGAAGGGCUGGAUA [Eternabot (L2) Solution 70] (Eterna round: R97, puzzle: Exclusion 5)	–	236 nM	–	182 nM	–
CUUUUGUGAGGAUAUUAGUAGUAAAUAAAUAAAAUUAUUACUGAGAAGGCACAUGAGGAUCACCCAUGUUCCUC [salish99_ex4_r3_062] (Eterna round: R96, puzzle: Exclusion 4)	–	533 nM	32.9 nM	36.6 nM	–
AUACCACGAGGAUAUCGUCUAUAAUACAUGAGGAUCACCCAUGUUAUAUCUGUAAUGUUUCGAGAAGGCGUGUGUU [JR_E5_Sub084] (puzzle: Exclusion 5)	17.9 nM	–	–	–	–
CCGAGGCUAGGAUAUUGACGAUAAUACAUGAGGAUCACCCAUGUGAGUCGUGUAUGCGCGCAAGAAGGAGUAAUAA [Tiorreonbi] (puzzle: Exclusion 5)	15.2 nM	–	–	–	–
ACCAAGCUAGGAUAUGCUUGGGCUCAAAUAAAUAAACACAAACAUGAGGAUCACCCAUGUAGAAGGAGCUUGCU [Zaabiquer] (puzzle: Exclusion 2)	12.6 nM	–	–	–	–
CUGUAAAGGAAGGAUAUGCUAGACGAAAGUCUAGCAGAAGGUCCUACAUGAGGAUCACCCAUGUGGCCUCACAG [Mat - Exclusion 6 - Eli Mod - D50] (Eterna round: R97, puzzle: Exclusion 6)	–	1500 nM	–	274 nM	–
